These results are taken from US20210371536A1 (SEOUL NATIONAL UNIVERSITY R AND DB FOUNDATION, published 2021).

In one test the target is mPDGFR-β on NIH3T3 cells (mouse, UniProt P05622 32-1098). The experiment in a line: cell-based or functional assay.
Test [1] has as its target hPDGFR-β on human pericyte cells (human, UniProt P09619 33-1106). Description: cell-based or functional assay.
The target in test [2] is T1, cynomolgus monkey PDGFR-β (Fc chimera) (cynomolgus monkey).
T1 construct: not shown: human Fc (hFc) and its junction to the receptor part
T1 chain: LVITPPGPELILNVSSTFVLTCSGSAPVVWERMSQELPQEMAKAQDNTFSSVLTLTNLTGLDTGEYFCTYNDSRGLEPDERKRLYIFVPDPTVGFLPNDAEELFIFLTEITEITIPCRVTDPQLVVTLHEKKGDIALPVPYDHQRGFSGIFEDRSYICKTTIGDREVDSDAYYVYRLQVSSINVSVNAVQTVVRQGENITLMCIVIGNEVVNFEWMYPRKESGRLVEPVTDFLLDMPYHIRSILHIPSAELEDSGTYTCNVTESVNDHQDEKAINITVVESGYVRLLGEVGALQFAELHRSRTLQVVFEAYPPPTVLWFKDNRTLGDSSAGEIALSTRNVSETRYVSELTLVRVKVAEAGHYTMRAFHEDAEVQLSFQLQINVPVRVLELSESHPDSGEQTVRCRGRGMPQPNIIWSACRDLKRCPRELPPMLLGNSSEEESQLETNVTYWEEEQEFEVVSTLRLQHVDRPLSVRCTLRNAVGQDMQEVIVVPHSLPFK
Description: cross-species ELISA on coated antigen, 100 nM bispecific, HRP-anti-human Cκ detection.

Test [3] concerns the target T2, Sus scrofa PDGFR-β-Fc chimera (Sus scrofa, UniProt Q6QNF3 33-530 (dog entry)).
T2 construct: also called Sus crowfa PDGFR-β; not shown: human Fc (hFc) and its junction to the receptor part
T2 chain: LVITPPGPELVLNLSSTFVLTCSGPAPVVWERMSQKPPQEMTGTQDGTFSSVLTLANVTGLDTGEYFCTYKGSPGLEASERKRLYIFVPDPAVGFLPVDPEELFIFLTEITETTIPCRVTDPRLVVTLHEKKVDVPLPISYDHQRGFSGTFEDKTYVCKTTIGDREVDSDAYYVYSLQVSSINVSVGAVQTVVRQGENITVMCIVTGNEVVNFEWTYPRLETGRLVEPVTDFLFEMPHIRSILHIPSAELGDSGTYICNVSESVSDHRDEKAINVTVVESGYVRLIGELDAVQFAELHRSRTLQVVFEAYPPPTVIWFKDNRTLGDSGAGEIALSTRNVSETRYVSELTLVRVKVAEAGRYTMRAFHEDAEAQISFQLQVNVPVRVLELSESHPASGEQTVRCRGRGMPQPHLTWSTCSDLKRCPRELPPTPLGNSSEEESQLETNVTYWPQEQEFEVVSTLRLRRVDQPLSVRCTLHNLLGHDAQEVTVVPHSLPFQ
Described as above.

Chain of hPDGFR-β on human pericyte cells (P09619 33-1106): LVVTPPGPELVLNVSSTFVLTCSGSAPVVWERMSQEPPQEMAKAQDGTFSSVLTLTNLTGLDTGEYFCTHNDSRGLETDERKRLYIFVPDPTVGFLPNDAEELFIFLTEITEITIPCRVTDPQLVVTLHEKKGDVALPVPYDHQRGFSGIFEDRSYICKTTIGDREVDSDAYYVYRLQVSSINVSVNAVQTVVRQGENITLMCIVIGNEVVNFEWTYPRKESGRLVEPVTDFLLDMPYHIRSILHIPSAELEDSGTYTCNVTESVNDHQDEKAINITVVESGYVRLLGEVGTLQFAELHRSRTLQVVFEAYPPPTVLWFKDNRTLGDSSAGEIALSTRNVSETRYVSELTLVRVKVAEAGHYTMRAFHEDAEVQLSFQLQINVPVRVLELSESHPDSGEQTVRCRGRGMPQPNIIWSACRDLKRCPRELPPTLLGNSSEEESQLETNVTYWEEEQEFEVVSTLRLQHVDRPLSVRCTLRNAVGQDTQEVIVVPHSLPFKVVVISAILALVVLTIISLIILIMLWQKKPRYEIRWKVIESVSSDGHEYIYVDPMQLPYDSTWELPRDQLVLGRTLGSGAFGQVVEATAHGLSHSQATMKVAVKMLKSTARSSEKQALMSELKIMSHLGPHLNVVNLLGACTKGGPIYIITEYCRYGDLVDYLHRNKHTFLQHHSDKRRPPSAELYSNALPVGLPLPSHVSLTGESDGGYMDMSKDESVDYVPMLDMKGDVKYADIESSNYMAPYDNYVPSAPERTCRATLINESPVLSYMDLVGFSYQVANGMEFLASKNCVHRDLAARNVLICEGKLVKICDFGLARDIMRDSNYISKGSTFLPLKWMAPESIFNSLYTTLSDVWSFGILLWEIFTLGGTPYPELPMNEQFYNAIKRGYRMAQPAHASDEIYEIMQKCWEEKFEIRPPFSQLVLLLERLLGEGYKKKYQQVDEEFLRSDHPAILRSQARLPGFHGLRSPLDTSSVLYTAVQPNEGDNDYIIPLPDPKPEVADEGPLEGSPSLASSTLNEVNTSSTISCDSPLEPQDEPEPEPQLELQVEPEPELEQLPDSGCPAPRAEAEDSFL
Chain of mPDGFR-β on NIH3T3 cells (P05622 32-1098): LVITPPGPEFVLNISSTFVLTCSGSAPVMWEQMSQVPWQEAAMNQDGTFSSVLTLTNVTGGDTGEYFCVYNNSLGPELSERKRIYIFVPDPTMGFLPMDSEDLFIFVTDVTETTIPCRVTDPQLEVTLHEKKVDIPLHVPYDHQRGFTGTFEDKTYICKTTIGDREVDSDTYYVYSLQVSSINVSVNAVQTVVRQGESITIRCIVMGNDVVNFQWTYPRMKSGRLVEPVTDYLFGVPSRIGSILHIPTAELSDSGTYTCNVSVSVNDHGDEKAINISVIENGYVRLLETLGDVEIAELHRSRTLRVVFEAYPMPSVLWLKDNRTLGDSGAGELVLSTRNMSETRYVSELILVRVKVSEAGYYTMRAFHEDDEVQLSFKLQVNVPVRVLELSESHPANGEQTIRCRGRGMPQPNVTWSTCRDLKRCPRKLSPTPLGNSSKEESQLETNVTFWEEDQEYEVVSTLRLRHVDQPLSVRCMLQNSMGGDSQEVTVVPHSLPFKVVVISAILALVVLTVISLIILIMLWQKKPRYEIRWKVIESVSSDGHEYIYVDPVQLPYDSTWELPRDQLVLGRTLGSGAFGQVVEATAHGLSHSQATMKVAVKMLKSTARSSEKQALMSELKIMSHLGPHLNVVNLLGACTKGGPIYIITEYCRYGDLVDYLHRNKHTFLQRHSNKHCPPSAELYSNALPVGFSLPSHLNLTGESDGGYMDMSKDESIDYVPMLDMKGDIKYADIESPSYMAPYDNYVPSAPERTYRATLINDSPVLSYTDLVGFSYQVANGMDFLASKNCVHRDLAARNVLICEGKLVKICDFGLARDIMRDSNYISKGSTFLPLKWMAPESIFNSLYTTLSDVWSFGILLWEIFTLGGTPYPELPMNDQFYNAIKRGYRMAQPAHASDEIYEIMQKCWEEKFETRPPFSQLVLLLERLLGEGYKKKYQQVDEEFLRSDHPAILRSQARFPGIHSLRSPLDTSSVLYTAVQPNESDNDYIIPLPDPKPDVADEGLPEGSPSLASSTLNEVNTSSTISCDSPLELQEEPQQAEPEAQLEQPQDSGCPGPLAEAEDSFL

B1: PRb-CN01 x cotinine scFv-Cκ-scFv fusion protein (bispecific antibody) (bispecific antibody)
chain: LTQPSSVSANPGETVKITCSGGSGSYGWFQQKSPGSAPVTVIYSNNQRPSDIPSRFSGSKSGSTNTLTITGVQAEDEAIYYCGTRDSSYVGIFGAGTTLTVLGQSSRSSGGGGSSGGGGSAVTLDESGGGLQTPGGALSLVCKASGFTFSDRAMHWVRQAPGKGLEWVGLITNTGGSTNYGAAVKGRATISRDNGQSTVRLQLNNLRAEDTGTYYCTRGVGSWAHGGRIDAWGHGTEVIVSSGGGGSGGGGSGGGGSRTVAAPSVFIFPPSDEQLKSGTASVVCLLNNFYPREAKVQWKVDNALQSGNSQESVTEQDSKDSTYSLSSTLTLSKADYEKHKVYACEVTHQGLSLPVTKSFNRGESGGGGSGGGGSGGGGSDIQMTQSPSSLSASVGDRVTITCQSSQSPYSNEWLSWYQQKPGKAPKLLIYRISTLASGVPSRFSGSRSGTDFTLTISSLQPEDFATYYCAGGYNFGLFLFGQGTKVEIKGQSSRSSGGGGSSGGGGSEVQLVESGGGLVQPGGSLRLSCAASGHLRRRDWMNWVRQAPGKGLEWVAAIGRSGDTYYATWAKGRFTISADTSKNTAYLQMNSLRAEDTAVYYCSRIPYFGWNNGDIWGQGTLVTVSS
Consider B1, for which, in the test with mPDGFR-β on NIH3T3 cells, the “IC50 (nM) of relative cell viability (cellular ATP), NIH3T3 cells, bispecific complexed with cot-duo, with mPDGF-BB” value amounted to 9.7 nM; the “IC50 (nM) of relative cell viability (cellular ATP), NIH3T3 cells, bispecific complexed with cot-duo, without mPDGF-BB” value worked out at 8.3 nM; the “IC50 (nM) of relative cell viability (cellular ATP), NIH3T3 cells, bispecific complexed with cot-duo-cot, with mPDGF-BB” value turned out to be 30.5 nM; the “IC50 (nM) of relative cell viability (cellular ATP), NIH3T3 cells, bispecific complexed with cot-duo-cot, without mPDGF-BB” value amounted to 20.1 nM.

B2: PRb-CN26 x cotinine scFv-Cκ-scFv fusion protein (bispecific antibody) (bispecific antibody)
chain: LTQPSSVSANPGETVKITCSGGGSYAGSYYYGWYQQKSPGSAPVTVIYDNTNRPSNIPSRFSGSLSGSTDTLTITGVQAEDEAVYFCGGYDGISDTGIFGAGTTLTVLGQSSRSSGGGGSSGGGGSAVTLDESGGGLQTPGGGLSLVCKASGFTFSDRGIHWVRQAPGKGLEWVAGIGNTGSYTAYAPAVKGRATISRDNGQSTVRLQLNNLRAEDTATYYCAKRGFMDAGGIDAWGHGTEVIVSSTSGGGGSGGGGSGGGGSRTVAAPSVFIFPPSDEQLKSGTASVVCLLNNFYPREAKVQWKVDNALQSGNSQESVTEQDSKDSTYSLSSTLTLSKADYEKHKVYACEVTHQGLSLPVTKSFNRGESGGGGSGGGGSGGGGSDIQMTQSPSSLSASVGDRVTITCQSSQSPYSNEWLSWYQQKPGKAPKLLIYRISTLASGVPSRFSGSRSGTDFTLTISSLQPEDFATYYCAGGYNFGLFLFGQGTKVEIKGQSSRSSGGGGSSGGGGSEVQLVESGGGLVQPGGSLRLSCAASGHLRRRDWMNWVRQAPGKGLEWVAAIGRSGDTYYATWAKGRFTISADTSKNTAYLQMNSLRAEDTAVYYCSRIPYFGWNNGDIWGQGTLVTVSS
In the case of B2, the “IC50 (nM) of relative cell viability (cellular ATP), human pericyte cells, bispecific complexed with cot-duo, with hPDGF-BB” value in test [1] turned out to be 0.87 nM. For the same molecule, the “IC50 (nM) of relative cell viability (cellular ATP), human pericyte cells, bispecific complexed with cot-duo, without hPDGF-BB” value in test [1] was 0.9 nM. The binding result in test [2] and in test [3] was “binds” throughout.

B3: PRb-CC02 x cotinine scFv-Cκ-scFv fusion protein (bispecific antibody) (bispecific antibody)
chain: LTQPSSVSANPGETVKITCSGGGGSYGWYQQKSPGSAPVTVIYYNDKRPSDIPSRFSGSKSGSTGTLTITGVQAEDEAVYFCGSYNSSDSLFGAGTTLTVLGQSSRSSGGGGSSGGGGSAVTLDESGGGLQTPGGALSLVCKASGFTFSSYGMFWVRQAPGKGLEWVAGIDTGSGTNYGSAVKGRATISRDNGQSTVRLQLNNLRAEDTGTYFCTRGYAGTIDAWGHGTEVIVSSTSGGGGSGGGGSGGGGSRTVAAPSVFIFPPSDEQLKSGTASVVCLLNNFYPREAKVQWKVDNALQSGNSQESVTEQDSKDSTYSLSSTLTLSKADYEKHKVYACEVTHQGLSLPVTKSFNRGESGGGGSGGGGSGGGGSDIQMTQSPSSLSASVGDRVTITCQSSQSPYSNEWLSWYQQKPGKAPKLLIYRISTLASGVPSRFSGSRSGTDFTLTISSLQPEDFATYYCAGGYNFGLFLFGQGTKVEIKGQSSRSSGGGGSSGGGGSEVQLVESGGGLVQPGGSLRLSCAASGHLRRRDWMNWVRQAPGKGLEWVAAIGRSGDTYYATWAKGRFTISADTSKNTAYLQMNSLRAEDTAVYYCSRIPYFGWNNGDIWGQGTLVTVSS
Consider B3, for which, in the test with mPDGFR-β on NIH3T3 cells, the “IC50 (nM) of relative cell viability (cellular ATP), NIH3T3 cells, bispecific complexed with cot-duo, with mPDGF-BB” value worked out at 20.6 nM; the “IC50 (nM) of relative cell viability (cellular ATP), NIH3T3 cells, bispecific complexed with cot-duo, without mPDGF-BB” value was 20.1 nM; the “IC50 (nM) of relative cell viability (cellular ATP), NIH3T3 cells, bispecific complexed with cot-duo-cot, with mPDGF-BB” value was determined as 89 nM; the “IC50 (nM) of relative cell viability (cellular ATP), NIH3T3 cells, bispecific complexed with cot-duo-cot, without mPDGF-BB” value was found to be 125 nM.

B4: PRb-CN16 x cotinine scFv-Cκ-scFv fusion protein (bispecific antibody) (bispecific antibody)
chain: LTQPSSVSANPGETVKITCSGSSSSYGWYQQKSPGSAPVTLIYENNQRPSNIPSRFSGSKSGSTGTLTITGVQAEDEAVYYCGNADRSNSAGTFGAGTTLTVLGQSSRSSGGGGSSGGGGSAVTLDESGGGLQTPGTALSLVCKASGFTFSSFNMAWVRQAPGKGLEFVGEISNTAGSTFYAPAVKGRATISRDNGQSTVRLQLNNLRAEDTAIYYCAKAAGTCYSHSCTGYIDAWGHGTEVIVSSTSGGGGSGGGGSGGGGSRTVAAPSVFIFPPSDEQLKSGTASVVCLLNNFYPREAKVQWKVDNALQSGNSQESVTEQDSKDSTYSLSSTLTLSKADYEKHKVYACEVTHQGLSLPVTKSFNRGESGGGGSGGGGSGGGGSDIQMTQSPSSLSASVGDRVTITCQSSQSPYSNEWLSWYQQKPGKAPKLLIYRISTLASGVPSRFSGSRSGTDFTLTISSLQPEDFATYYCAGGYNFGLFLFGQGTKVEIKGQSSRSSGGGGSSGGGGSEVQLVESGGGLVQPGGSLRLSCAASGHLRRRDWMNWVRQAPGKGLEWVAAIGRSGDTYYATWAKGRFTISADTSKNTAYLQMNSLRAEDTAVYYCSRIPYFGWNNGDIWGQGTLVTVSS
notes: also called anti-hPDGFR-β x cotinine scFv-Cκ-scFv
Take B4: the “IC50 (nM) of relative cell viability (cellular ATP), human pericyte cells, bispecific complexed with cot-duo, with hPDGF-BB” value in test [1] is 1.82 nM. The “IC50 (nM) of relative cell viability (cellular ATP), human pericyte cells, bispecific complexed with cot-duo, without hPDGF-BB” value in test [1] is 2.39 nM. The binding result in test [2] and in test [3] was “binds” each time.

B5: PRb-CC03 x cotinine scFv-Cκ-scFv fusion protein (bispecific antibody) (bispecific antibody)
chain: LTQPSSVSANPGETVKITCSGGTYNYGWYQQKSPGSAPVTVIYWNDKRPSDIPSRFSGSKSGSTGTLTITGVQAEDEAVYYCGSSDSSGLIFGAGTTLTVLGQSSRSSGGGGSSGGGGSAVTLDESGGGLQTPGGTLSLVCKASGFTFSSYAMGWVRQAPGKGLEWVAGIDTAGGTAYGPAVKGRATISRDNGQSTVRLQLNNLRAEDTATYYCTRSSYIDTWGHGTEVIVSSTSGGGGSGGGGSGGGGSRTVAAPSVFIFPPSDEQLKSGTASVVCLLNNFYPREAKVQWKVDNALQSGNSQESVTEQDSKDSTYSLSSTLTLSKADYEKHKVYACEVTHQGLSLPVTKSFNRGESGGGGSGGGGSGGGGSDIQMTQSPSSLSASVGDRVTITCQSSQSPYSNEWLSWYQQKPGKAPKLLIYRISTLASGVPSRFSGSRSGTDFTLTISSLQPEDFATYYCAGGYNFGLFLFGQGTKVEIKGQSSRSSGGGGSSGGGGSEVQLVESGGGLVQPGGSLRLSCAASGHLRRRDWMNWVRQAPGKGLEWVAAIGRSGDTYYATWAKGRFTISADTSKNTAYLQMNSLRAEDTAVYYCSRIPYFGWNNGDIWGQGTLVTVSS
As to B5, in the test with mPDGFR-β on NIH3T3 cells, the “IC50 (nM) of relative cell viability (cellular ATP), NIH3T3 cells, bispecific complexed with cot-duo, with mPDGF-BB” value turned out to be 20.7 nM; the “IC50 (nM) of relative cell viability (cellular ATP), NIH3T3 cells, bispecific complexed with cot-duo, without mPDGF-BB” value is 27.3 nM; the “IC50 (nM) of relative cell viability (cellular ATP), NIH3T3 cells, bispecific complexed with cot-duo-cot, with mPDGF-BB” value is 50.2 nM; the “IC50 (nM) of relative cell viability (cellular ATP), NIH3T3 cells, bispecific complexed with cot-duo-cot, without mPDGF-BB” value was determined as 67.3 nM.

B6: PRb-CC01 x cotinine scFv-Cκ-scFv fusion protein (bispecific antibody) (bispecific antibody)
chain: LTQPSSVSANLGGTVKITCSGGGSYYGWYQQKSPGSAPVTLIYYNDKRPSDIPSRFSGSKSGSTGTLTITGVQAEDEAVYFCGAWDNSAGYAGFGAGTTLTVLGQSSRSSGGGGSSGGGGSAVTLDESGGGLQTPGGALSLVCKGSGFTFSSYNMGWVRQAPGKGLEFVAGISAADNSTAYGAAVDGRATISRDNGQSTVRLQLNNLRAEDTATYFCIRGGGSIDAWGHGTEVIVSSGGGGSGGGGSGGGGSRTVAAPSVFIFPPSDEQLKSGTASVVCLLNNFYPREAKVQWKVDNALQSGNSQESVTEQDSKDSTYSLSSTLTLSKADYEKHKVYACEVTHQGLSLPVTKSFNRGESGGGGSGGGGSGGGGSDIQMTQSPSSLSASVGDRVTITCQSSQSPYSNEWLSWYQQKPGKAPKLLIYRISTLASGVPSRFSGSRSGTDFTLTISSLQPEDFATYYCAGGYNFGLFLFGQGTKVEIKGQSSRSSGGGGSSGGGGSEVQLVESGGGLVQPGGSLRLSCAASGHLRRRDWMNWVRQAPGKGLEWVAAIGRSGDTYYATWAKGRFTISADTSKNTAYLQMNSLRAEDTAVYYCSRIPYFGWNNGDIWGQGTLVTVSS
Take B6: in the test with mPDGFR-β on NIH3T3 cells, the “IC50 (nM) of relative cell viability (cellular ATP), NIH3T3 cells, bispecific complexed with cot-duo, with mPDGF-BB” value amounted to 27.1 nM; the “IC50 (nM) of relative cell viability (cellular ATP), NIH3T3 cells, bispecific complexed with cot-duo, without mPDGF-BB” value was found to be 25 nM; the “IC50 (nM) of relative cell viability (cellular ATP), NIH3T3 cells, bispecific complexed with cot-duo-cot, with mPDGF-BB” value amounted to 67.2 nM; the “IC50 (nM) of relative cell viability (cellular ATP), NIH3T3 cells, bispecific complexed with cot-duo-cot, without mPDGF-BB” value stood at 87.6 nM.
